# Reference: article PMC9821441, “Quick and Spontaneous Transformation between [3Fe–4S] and [4Fe–4S] Iron–Sulfur Clusters in the tRNA-Thiolation Enzyme TtuA” (International Journal of Molecular Sciences, 2023)
# B1: TtuB–COSH (sulfur donor protein TtuB from Thermus thermophilus HB27 with a C-terminal thiocarboxylate) (natural protein, Thermus thermophilus (HB27 strain), UniProt Q72LF4 1-65, looked up)
# chain: MRVVLRLPERKEVEVKGNRPLREVLEELGLNPETVVAVRGEELLTLEDEVREEDTLEVLSAISGG
# modifications: not fully specified (C-terminus)
# notes: TtuB, sulfur donor (sulfur carrier) protein, Thermus thermophilus HB27; source: E. coli B834 (DE3), pTYB1, purified on chitin resin; intein cleaved with 50 mM ammonium sulfide; not shown: intein, C-terminal, cleaved
# Biological target: T1, [4Fe–4S]-TtuA (tRNA-thiolation enzyme TtuA from Thermus thermophilus HB27, reconstituted with a [4Fe–4S] … (Thermus thermophilus (HB27 strain), UniProt Q72LF3 1-321)
# T1 construct: TtuA, tRNA-thiolation enzyme, Thermus thermophilus HB27; Carries a [4Fe–4S] cluster with the unique (non-cysteine-chelated) Fe; same polypeptide as m2, only the cofactor differs; also called TthTtuA; reconstituted TtuA; source: [4Fe–4S] reconstituted with DTT, FeCl3 and Na2S
# T1 sequence (looked up): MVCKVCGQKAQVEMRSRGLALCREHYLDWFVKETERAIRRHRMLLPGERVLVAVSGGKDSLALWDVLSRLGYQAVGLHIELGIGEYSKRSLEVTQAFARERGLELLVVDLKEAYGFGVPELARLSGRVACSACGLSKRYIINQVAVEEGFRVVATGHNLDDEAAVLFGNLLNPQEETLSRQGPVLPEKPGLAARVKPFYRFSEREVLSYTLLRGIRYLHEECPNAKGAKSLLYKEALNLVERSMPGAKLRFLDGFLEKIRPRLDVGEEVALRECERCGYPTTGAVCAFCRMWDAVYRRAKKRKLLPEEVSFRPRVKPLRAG
# Assay: EPR spectroscopy; TtuA mixed with TtuB–COSH to a final concentration of 0.5 mM, 25 °C for 5 min, strictly anaerobic; then 5-fold molar excess dithionite, 25 °C for 10 min, frozen; CW X-band EPR (~9.59 GHz) at 12 K for [4Fe–4S]1+ and 40 K for [3Fe–4S]1+; reads the Fe–S cluster only
# Conditions: both partners purified
binder,measurement,value
B1,binding result,binds
